This is an account of results in patent publication US20150132305A1.

Positions count from the first letter of the chain named. No end group written: not given here.

Assay [1] deals with T1, human Cadherin-11 on cells (Cad-11-expressing 431-D-11 cells; human fibroblast-like synoviocytes) (human) (UniProt P55287).
T1 sequence: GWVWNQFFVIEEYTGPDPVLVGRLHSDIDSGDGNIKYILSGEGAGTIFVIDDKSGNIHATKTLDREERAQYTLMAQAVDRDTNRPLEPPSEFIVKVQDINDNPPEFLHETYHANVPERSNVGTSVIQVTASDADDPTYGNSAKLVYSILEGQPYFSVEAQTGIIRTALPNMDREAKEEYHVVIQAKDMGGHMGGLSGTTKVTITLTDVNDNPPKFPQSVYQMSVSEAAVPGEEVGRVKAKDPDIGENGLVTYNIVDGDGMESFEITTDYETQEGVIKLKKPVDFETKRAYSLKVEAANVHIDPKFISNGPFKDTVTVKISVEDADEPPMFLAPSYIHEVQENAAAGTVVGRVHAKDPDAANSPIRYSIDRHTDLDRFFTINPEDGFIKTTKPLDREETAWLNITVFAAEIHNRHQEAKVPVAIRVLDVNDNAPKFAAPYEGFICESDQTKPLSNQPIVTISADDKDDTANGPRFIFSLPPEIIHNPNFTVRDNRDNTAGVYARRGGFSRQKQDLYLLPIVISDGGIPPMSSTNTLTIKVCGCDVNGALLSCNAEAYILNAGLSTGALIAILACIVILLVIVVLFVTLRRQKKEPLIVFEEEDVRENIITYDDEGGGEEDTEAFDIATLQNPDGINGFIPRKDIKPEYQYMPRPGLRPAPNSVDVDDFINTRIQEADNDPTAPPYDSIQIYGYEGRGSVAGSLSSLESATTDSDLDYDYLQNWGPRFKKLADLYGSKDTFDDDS
The assay can be described thus: cell-based or functional assay.

The target of assay [2] is Cad-11 EC1 domain peptide, first 33 amino acids (G1-G33), specificity ELISA of Example 5 (human). The assay is described as follows: ELISA on biotin EC1 peptides.
Assay [3] concerns the target T2, Cad-8 EC1 domain peptide (region overlapping G1-G33 of the Cad-11 EC1 domain) (UniProt P55286).
T2 sequence (peptide, conjugated to biotin, looked up): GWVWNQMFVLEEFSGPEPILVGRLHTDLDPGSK
The assay is described as follows: ELISA on biotin EC1 peptides.

Assay [4] deals with T3, recombinant Cad-11 EC1 human IgG1 fusion protein (R&D Systems Cat. No. 1790-CA-050) (human) (UniProt P55287).
T3 sequence: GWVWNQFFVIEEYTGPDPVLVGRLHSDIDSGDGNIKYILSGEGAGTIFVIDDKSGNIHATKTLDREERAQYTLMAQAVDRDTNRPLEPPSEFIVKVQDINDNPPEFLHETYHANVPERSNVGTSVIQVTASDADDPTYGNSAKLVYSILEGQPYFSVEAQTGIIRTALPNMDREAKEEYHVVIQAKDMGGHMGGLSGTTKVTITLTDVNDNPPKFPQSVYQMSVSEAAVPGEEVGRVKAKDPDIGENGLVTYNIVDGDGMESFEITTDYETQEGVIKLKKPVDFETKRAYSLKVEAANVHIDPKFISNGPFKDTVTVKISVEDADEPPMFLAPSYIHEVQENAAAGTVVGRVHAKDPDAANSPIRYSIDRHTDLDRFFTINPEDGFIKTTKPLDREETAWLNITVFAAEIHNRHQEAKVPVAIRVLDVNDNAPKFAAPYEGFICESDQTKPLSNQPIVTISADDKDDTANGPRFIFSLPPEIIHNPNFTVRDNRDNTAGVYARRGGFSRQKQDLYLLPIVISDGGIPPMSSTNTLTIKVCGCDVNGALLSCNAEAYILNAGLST
The assay is described as follows: competition ELISA on coated recombinant human Cad-11 EC1 fusion protein against biotinylated SYN0012 (0.1 µg/ml).

Assay [5] deals with T4, Cad-11 37-mer peptide linked to BSA (encompasses the Cad-11 immunogen) (human).
T4 sequence (peptide, linked to BSA): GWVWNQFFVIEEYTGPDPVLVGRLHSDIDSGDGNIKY
The assay can be described thus: ELISA, BSA-coupled 37-mer cadherin peptide coated at 500 ng/ml, A450.

Assay [6] has the same target. The assay can be described thus: ELISA on BSA-coupled 37-mer peptides, 500 ng/ml coat.
Assay [7] shares this target. The assay is described as follows: ELISA on peptide antigens, 50 ng/ml coat.
For assay [8] the target is unchanged. The assay can be described thus: ELISA on peptide antigen, 50 ng/ml coat; Cad-11 antigen, 50 ng/ml coat.
In assay [9] the target is SDP051 humanized anti-Cad-11 EC1 antibody (Vκ1/VH5). The assay can be described thus: flow cytometry blocking assay: peptide titrated with SDP 051 at 0.5 ug/ml on Cad-11 expressing 431D cells; blocked: binding of SDP051 to cell-surface Cad-11; MFI.

B1: H1M1 anti-Cad-11 EC1 domain antibody (hybridoma H1M1, ATCC PTA-9699) (antibody, V domains shown)
VH: EVQLQQSGPELVKPGASVKISCKASGYSFTGYFMNWVKQSHGKSLEWIGRINPYTGDTFYNQKFKGKATLTVDKSSSTAHMELLSLSSEDSAVYYCGRLGSRYWYFDVWGAGTTVTVSS
VL: DVLMTQTPLSLPVSLGDQASISCRSSQSIIHSNGNTYLEWYLQKPGQSPKLLIYKVSNRFSGVPDRFWTFGGGTKLEIKTGSGSGTDFTLKISRVEAEDLGVYYCFQGSHVPWTFGGGTKLEIK
Take B1: in assay [1], the inhibition of FLS invasion into MATRIGEL-coated membrane is 80%. In addition, the fold higher binding to Cad-11 than to any of the other cadherins tested in assay [2] is greater than 100 fold. This molecule registered a fold lower binding than to Cad-11 in [3] of 1500 fold. Besides, the IC50 (read off the curve) in assay [4] came to 0.2 µg/mL.

B2: SDP111 humanized anti-Cad-11 EC1 antibody (Vκ3/VH1) (antibody, IgG4, V domains shown)
VH: B1 VH with Q5V, V12K, S40A, K43Q, S44G, K67R, H80Y, L84V, A111Q
VL: DVVMTQTPLSSPVTLGQPASISCRSSQSIIHSNGNTYLEWYLQKPGQSPQLLIYKVSNRFSGVPDRFSGSGSGTDFTLKISRVEAEDVGVYYCFQGSHVPWTFGQGTKLEIK
With B2, in [5], the EC50 (read off the curve) was 0.07 µg/mL.

B3: SDP011 humanized anti-Cad-11 EC1 antibody (Vκ1/VH1) (antibody, IgG4, V domains shown)
VH: B1 VH with Q5V, V12K, S40A, K43Q, S44G, K67R, H80Y, L84V, A111Q
VL: B2 VL with V3L, S68T
Turning to B3, the half-maximal effective concentration (EC50 (read off the curve)) in assay [5] amounted to 0.07 µg/mL.

B4: SDP061 humanized anti-Cad-11 EC1 antibody (Vκ2/VH1) (antibody, IgG4, V domains shown)
VH: B1 VH with Q5V, V12K, S40A, K43Q, S44G, K67R, H80Y, L84V, A111Q
VL: B2 VL with V3L
In [6], B4 gave a fold greater binding to the Cad-11 antigen than to the related antigens from the other cadherins greater than 20 fold. In assay [5], the EC50 (read off the curve) stood at 0.05 µg/mL.

B5: Cad-11-EC1-5-Fc fusion protein (5 extracellular domains of Cad-11 fused to the human IgG2 hinge, CH2 and CH3 domains) (Fc fusion, not shown: a dimerising Fc or GST)
chain: T3 sequence
Molecule B5 returned a Cad-11 mediated cell aggregation in assay [1] of 100 µg/mL.

B6: SDP081 humanized anti-Cad-11 EC1 antibody (Vκ2/VH3) (antibody, IgG4, V domains shown)
VH: EVQLVQSGAEVKKPGASVKISCKASGYSFTGYFMNWVRQAPGQGLEWIGRINPYTGDTFYNQKFKGRATLTVDKSTSTAYMELSSLRSEDTAVYYCGRLGSRYWYFDVWGQGTTVTVSS
VL: B2 VL with V3L
B6: the EC50 (read off the curve) in assay [5] is 0.07 µg/mL.

B7: SDP091 humanized anti-Cad-11 EC1 antibody (Vκ2/VH4) (antibody, IgG4, V domains shown)
VH: B6 VH with I20V, L70I
VL: B2 VL with V3L
As to B7, the 50% effective concentration (EC50 (read off the curve)) in [5] stood at 0.07 µg/mL.

B8: SDP041 humanized anti-Cad-11 EC1 antibody (Vκ1/VH4) (antibody, IgG4, V domains shown)
VH: B6 VH with I20V, L70I
VL: B2 VL with V3L, S68T
Consider B8, for which, in assay [5], the 50% effective concentration (EC50 (read off the curve)) is 0.06 µg/mL.

B9: SDP121 humanized anti-Cad-11 EC1 antibody (Vκ3/VH2) (antibody, IgG4, V domains shown)
VH: B6 VH with R38K
VL: B2 VL
As for B9, the EC50 (read off the curve) in [5] was determined as 0.05 µg/mL.

B10: SDP131 humanized anti-Cad-11 EC1 antibody (Vκ3/VH3) (antibody, IgG4, V domains shown)
VH: B6 VH
VL: B2 VL
B10 came in with an EC50 (read off the curve) in assay [5] of 0.07 µg/mL.

B11: SDP141 humanized anti-Cad-11 EC1 antibody (Vκ3/VH4) (antibody, IgG4, V domains shown)
VH: B6 VH with I20V, L70I
VL: B2 VL
For B11, the concentration for a half-maximal effect (EC50 (read off the curve)) in [5] stood at 0.06 µg/mL.

B12: SDP031 humanized anti-Cad-11 EC1 antibody (Vκ1/VH3) (antibody, IgG4, V domains shown)
VH: B6 VH
VL: B2 VL with V3L, S68T
Turning to B12, the fold greater binding to the Cad-11 antigen than to the related antigens from the other cadherins in assay [6] is greater than 20 fold. In addition, the 50% effective concentration (EC50 (read off the curve)) in assay [5] was determined as 0.06 µg/mL.

B13: SDP021 humanized anti-Cad-11 EC1 antibody (Vκ1/VH2) (antibody, IgG4, V domains shown)
VH: B6 VH with R38K
VL: B2 VL with V3L, S68T
For the molecule B13, the EC50 (read off the curve) in [5] is 0.06 µg/mL.

B14: SDP051 humanized anti-Cad-11 EC1 antibody (Vκ1/VH5) (antibody, IgG4, V domains shown)
VH: B6 VH with I20V, A68V, L70I
VL: B2 VL with V3L, S68T
In turn, B14 displayed a binding differential, Cad-11 against Cad-8 in assay [7] greater than 200 fold. In addition, the fold greater binding to the Cad-11 antigen than to the related antigens from the other cadherins in assay [6] was greater than 100 fold. The EC50 in assay [8] worked out at 0.0068 µg/mL. Moreover, the concentration giving a half-maximal response (EC50 (read off the curve)) in assay [5] amounted to 0.04 µg/mL.

B15: SDP071 humanized anti-Cad-11 EC1 antibody (Vκ2/VH2) (antibody, IgG4, V domains shown)
VH: B6 VH with R38K
VL: B2 VL with V3L
Molecule B15 returned a fold greater binding to the Cad-11 antigen than to the related antigens from the other cadherins in assay [6] greater than 20 fold.

B16: SDP151 humanized anti-Cad-11 EC1 antibody (Vκ3/VH5) (antibody, IgG4, V domains shown)
VH: B6 VH with I20V, A68V, L70I
VL: B2 VL
For the molecule B16, the EC50 (read off the curve) in assay [5] came out at 0.06 µg/mL.

B17: human Cad-11-EC1-hIgG2-Fc1 fusion protein (Fc fusion)
chain: FAPERRGHLRPSFHGHHEKGKEGQVLQRSKRGWVWNQFFVIEEYTGPDPVLVGRLHSDIDSGDGNIKYILSGEGAGTIFVIDDKSGNIHATKTLDREERAQYTLMAQAVDRDTNRPLEPPSEFIVKVQRSVECPPCPAPPVAGPSVFLFPPKPKDTLMISRTPEVTCVVVDVSHEDPEVQFNWYVDGMEVHNAKTKPREEQFNSTFRVVSVLTVVHQDWLNGKEYKCKVSNKGLPAPIEKTISKTKGQPREPQVYTLPPSREEMTKNQVSLTCLVKGFYPSDIAVEWESNGQPENNYKTTPPMLDSDGSFFLYSKLTVDKSRWQQGNVFSCSVMHEALHNHYTQKSLSLSPGKVPRLA
On to B17, for which the Cad-11 mediated cell aggregation in assay [1] turned out to be 3 µg/mL.

B18: Cad-11 37-mer peptide linked to BSA (encompasses the Cad-11 immunogen) (peptide)
peptide: T4 sequence (peptide, linked to BSA)
modifications: also: linked to BSA
Turning to B18, the IC50 (read off the curve) in [9] was determined as 0.2 µg/mL.
